Target: the molecule itself
Test: self-association: overnight incubation at 37 °C in pH neutral buffer, SDS-PAGE on a 4-20% gradient gel
Procedure: Protein preparations of the N-terminal (21.5 kDa) and C-terminal (18.5 kDa) were incubated at 4 μM concentration in pH neutral buffer and incubated overnight at 37° C.

B1: N-terminal portion of tau protein (amino acids 1-184) (other, UniProt P10636-8 1-184, looked up)
chain: MAEPRQEFEVMEDHAGTYGLGDRKDQGGYTMHQDQEGDTDAGLKESPLQTPTEDGSEEPGSETSDAKSTPTAEDVTAPLVDEGAPGKQAAAQPHTEIPEGTTAEEAGIGDTPSLEDEAAGHVTQARMVSKSKDGTGSDDKKAKGADGKTKIATPRGAAPPGQKGQANATRIPAKTPPAPKTPPS
notes: range 1-184; Printed mass 21.5 kDa, charge approximately -7.2; also called tau fragment (21.5 KD) that encompasses the N-terminus; N-terminal (21.5 kDa)
binding result: no binding (tested: 4 µM)

Reference: patent US20210395319A1 (OLIGOMERIX, published 2021)
